As a reminder, the Kd is a measure of binding affinity in units of concentration. By koff is commonly meant the rate constant with which the complex falls apart. As a reminder, the kon is the rate constant with which the complex forms.

This is an account of results in US20220185874A1 (ROCHE DIAGNOSTICS OPERATIONS, published 2022).

For assay [1], the target named is T1, human cardiac troponin T (human, UniProt P45379 2-298).
T1 construct: Analyte in SPR was 'Recombinant human TnT (Roche, 37 kDa)'; also called cTnT; TnT
In words: SPR (Biacore 8K), 37 C, Fab captured from E. coli lysate by anti-mouse F(ab')2, recombinant human TnT as analyte. Here is the method:
Detailed kinetic investigations were performed at 37° C. on a GE Healthcare 8k instrument. A Biacore CM-5 series S sensor was mounted into the instrument and was preconditioned according to the manufacturer's instructions. The system buffer was HBS-ET (10 mM HEPES (pH 7.4), 150 mM NaCl, 1 mM EDTA, 0.05% (w/v) Tween® 20). The sample buffer was the system buffer supplemented with 1 mg/ml CMD (Carboxymethyldextran, Fluka). In one embodiment an anti-murine Fab fragment capture system was established on the CM5 biosensor. The rabbit polyclonal pAb anti M-IgG, F(ab′)₂ fragment (Cat. No. 315-005-047, Jackson Immuno Research) was immobilized according to the manufacturer's instructions using NHS/EDC chemistry. At 5 μl/min, 30 μg/ml RAMF(ab′)₂ in 10 mM sodium acetate buffer (pH 5.0) were immobilized at 10.000 RU on each flow cell. The sensor was subsequently saturated with 1 M ethanolamine pH 8.5. […] Recombinant human TnT (Roche, 37 kDa) was diluted in sample buffer at 30 nM and a concentration series was produced with 0 nM, 30 nM, 10 nM, 3.3 nM, 1.1 nM, 0.37 nM TnT concentration. The analyte concentration series were injected at 80 μl/min for 3 min association phase and the dissociation phase was monitored for 5 min. At the end of the analyte association phase a report point, “binding late” (BL) in response units (RU) was monitored. After each cycle of kinetic rates determination, the capture system was regenerated by a 15 seconds injection of 10-fold concentrated HBS-EP buffer followed by two 1 min injections of 100 mM HCl at 20 μl/min.
In general terms: SPR reads the build-up and loss of mass on a sensor chip optically.

Assay [2] concerns the target T1, human cardiac troponin T. The experiment in a line: Elecsys ECL sandwich immunoassay, calibrator Cal2 (recTnT), reference: biotinylated wild type Fab of MAB11-7. Here is the method:
(§1) The antibody Fab fragment mAb<TnT>rM-11-7(A102W)-Fab(IgG1)-Qtag was produced as a biotinylated Fab fragment, i.e., mAb<TnT>rM-11-7(A102W)-Fab(IgG1)-Qtag-Bi according to Example 7 and was tested in a sandwich immuno assay (see FIG. 6). The Fab fragment mAb<TnT>rM-11-7(A102W)-Fab(IgG1)-Qtag-Bi was compared to the biotinylated wild type Fab-fragment of MAB11-7 (i.e. comprising a CDR3 of SEQ ID NO: 16) as comprised in the commercially available Roche Elecsys® assay, catalogue number 05092744190 (Roche Diagnostics GmbH, Mannheim, Germany). These biotinylated reagents were used as reagent 1 (RI) in the corresponding assay protocol. The ruthenylated detection antibody was the one comprised in the Roche Elecsys® assay, catalogue number 05092744190 (Roche Diagnostics GmbH, Mannheim, Germany). The ruthenylated detection antibody corresponds to the Elecsys® R2 reagent.
(§2) The assay follows assay protocol 2 of the cobas e analyzers, where sample, R1 and R2 are mixed in a first step for 9 min incubation, then the streptavidin coated magnetic beads are added in a second step for another 9 min incubation. […]
(§3) Elecsys® streptavidin-coated magnetic beads were always used in combination with one of the RI and R2 reagent bottles. Samples measured included sample diluent (Diluent Universal=buffer blank,) and the TnT Elecsys® assay commercial calibrators (Call ([…] recTnT) and Cal2 ([…] recTnT)).

For assay [3], the target named is T1, human cardiac troponin T. In words: Elecsys ECL sandwich immunoassay, biotinylated Fab as capture reagent R1, ruthenylated commercial detection antibody; reference: biotinylated wild type Fab of MAB11-7. Here is the method:
as §1
Measurements were performed on a Cobas E170 Module using the Troponin T hs assay protocol with a blank control (Diluent Universal, Id. 11732277122, Diluent Multi Assay, Id. 03609987170, Roche Diagnostics GmbH, Mannheim, Germany), Call and Cal2 from Troponin T hs CalSet (Id. 05092752190, Roche Diagnostics GmbH, Mannheim, Germany) using the Troponin T hs assay specifications. […]

Assay [4] concerns the target T1, human cardiac troponin T. The experiment in a line: Elecsys ECL sandwich immunoassay, calibrator Cal1 (recTnT), reference: biotinylated wild type Fab of MAB11-7. Here is the method: as §1, §2, §3

B1: mAb<TnT>rM-11-7 Fab A102D (Fab, V domains shown)
VH: QIQLVQSGPELKKPGETVKISCKASGYTFTDFSMHWVKQAPGKGLKWMGWINTETGEPTYADDFKGRFAFSLETSATTAYLQINNLKNEDTATYFCVRSHDMDYWGQGTSVTVSS
VL: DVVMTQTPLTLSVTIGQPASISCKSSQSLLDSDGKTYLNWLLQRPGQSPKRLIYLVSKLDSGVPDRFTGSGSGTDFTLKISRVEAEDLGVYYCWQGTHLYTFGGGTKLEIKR
notes: Murine CH1 and CL, E. coli periplasmic lysate
In the case of B1, in assay [1], the Kd was determined as 15 nM, the koff was determined as 0.029 s⁻¹, the kon is 1.9e+06 M⁻¹ s⁻¹ and the “t½ [min] (complex half-life)” value amounted to 0.4 min.

B2: mAb<TnT>rM-11-7 Fab A102N (Fab, V domains shown)
VH: QIQLVQSGPELKKPGETVKISCKASGYTFTDFSMHWVKQAPGKGLKWMGWINTETGEPTYADDFKGRFAFSLETSATTAYLQINNLKNEDTATYFCVRSHNMDYWGQGTSVTVSS
VL: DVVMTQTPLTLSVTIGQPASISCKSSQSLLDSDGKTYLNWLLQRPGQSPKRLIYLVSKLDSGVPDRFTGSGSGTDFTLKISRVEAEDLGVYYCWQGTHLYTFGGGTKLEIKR
notes: as for B1
Regarding B2, in assay [1], the Kd turned out to be 17 nM, the koff was 0.056 s⁻¹, the kon amounted to 3.3e+06 M⁻¹ s⁻¹ and the “t½ [min] (complex half-life)” value worked out at 0.2 min.

B3: mAb<TnT>rM-11-7 Fab A102L (Fab, V domains shown)
VH: QIQLVQSGPELKKPGETVKISCKASGYTFTDFSMHWVKQAPGKGLKWMGWINTETGEPTYADDFKGRFAFSLETSATTAYLQINNLKNEDTATYFCVRSHLMDYWGQGTSVTVSS
VL: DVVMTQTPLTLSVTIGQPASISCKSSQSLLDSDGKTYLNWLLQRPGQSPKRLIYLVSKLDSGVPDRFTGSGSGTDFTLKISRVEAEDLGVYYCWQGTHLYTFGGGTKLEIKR
notes: as for B1
With B3, in assay [1], the dissociation constant Kd worked out at 13 nM, the koff is 0.009 s⁻¹, the kon was found to be 710000 M⁻¹ s⁻¹ and the “t½ [min] (complex half-life)” value is 1 min.

B4: mAb<TnT>rM-11-7 Fab A102R (Fab, V domains shown)
VH: QIQLVQSGPELKKPGETVKISCKASGYTFTDFSMHWVKQAPGKGLKWMGWINTETGEPTYADDFKGRFAFSLETSATTAYLQINNLKNEDTATYFCVRSHRMDYWGQGTSVTVSS
VL: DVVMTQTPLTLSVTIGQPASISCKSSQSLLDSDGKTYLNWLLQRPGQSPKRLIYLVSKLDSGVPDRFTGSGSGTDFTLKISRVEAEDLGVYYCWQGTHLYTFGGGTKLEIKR
notes: as for B1
Turning to B4, in assay [1], the Kd is 2500 nM, the koff was determined as 0.042 s⁻¹, the kon is 16000 M⁻¹ s⁻¹ and the “t½ [min] (complex half-life)” value came out at 0.3 min.

B5: mAb<TnT>rM-11-7 Fab A102H (Fab, V domains shown)
VH: QIQLVQSGPELKKPGETVKISCKASGYTFTDFSMHWVKQAPGKGLKWMGWINTETGEPTYADDFKGRFAFSLETSATTAYLQINNLKNEDTATYFCVRSHHMDYWGQGTSVTVSS
VL: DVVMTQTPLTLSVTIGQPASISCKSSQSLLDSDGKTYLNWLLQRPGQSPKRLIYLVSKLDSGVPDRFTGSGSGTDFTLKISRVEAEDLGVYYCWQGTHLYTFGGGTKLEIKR
notes: as for B1
Regarding B5, in assay [1], the Kd worked out at 8 nM, the koff was 0.0069 s⁻¹, the kon came to 830000 M⁻¹ s⁻¹ and the “t½ [min] (complex half-life)” value turned out to be 2 min.

B6: mAb<TnT>rM-11-7 Fab A102F (Fab, V domains shown)
VH: QIQLVQSGPELKKPGETVKISCKASGYTFTDFSMHWVKQAPGKGLKWMGWINTETGEPTYADDFKGRFAFSLETSATTAYLQINNLKNEDTATYFCVRSHFMDYWGQGTSVTVSS
VL: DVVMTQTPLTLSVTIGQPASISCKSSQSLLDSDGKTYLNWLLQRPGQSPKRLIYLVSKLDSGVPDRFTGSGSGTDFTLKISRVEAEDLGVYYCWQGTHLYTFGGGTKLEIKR
notes: as for B1
For the molecule B6, in assay [1], the dissociation constant (Kd) amounted to 1 nM, the koff was found to be 0.0012 s⁻¹, the kon amounted to 900000 M⁻¹ s⁻¹ and the “t½ [min] (complex half-life)” value turned out to be 10 min.

B7: mAb<TnT>rM-11-7 Fab A102I (Fab, V domains shown)
VH: QIQLVQSGPELKKPGETVKISCKASGYTFTDFSMHWVKQAPGKGLKWMGWINTETGEPTYADDFKGRFAFSLETSATTAYLQINNLKNEDTATYFCVRSHIMDYWGQGTSVTVSS
VL: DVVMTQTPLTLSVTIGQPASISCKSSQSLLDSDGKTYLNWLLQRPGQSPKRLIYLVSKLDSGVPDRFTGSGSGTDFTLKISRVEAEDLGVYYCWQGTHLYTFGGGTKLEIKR
notes: as for B1
For the molecule B7, in assay [1], the Kd was 18 nM, the dissociation rate constant (koff) stood at 0.032 s⁻¹, the on-rate (kon) was 1.7e+06 M⁻¹ s⁻¹ and the “t½ [min] (complex half-life)” value was found to be 0.4 min.

B8: mAb<TnT>rM-11-7 Fab A102Y (Fab, V domains shown)
VH: QIQLVQSGPELKKPGETVKISCKASGYTFTDFSMHWVKQAPGKGLKWMGWINTETGEPTYADDFKGRFAFSLETSATTAYLQINNLKNEDTATYFCVRSHYMDYWGQGTSVTVSS
VL: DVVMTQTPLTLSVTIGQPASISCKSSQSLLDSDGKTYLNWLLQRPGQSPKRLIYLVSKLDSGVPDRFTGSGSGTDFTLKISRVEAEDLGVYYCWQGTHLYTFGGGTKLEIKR
notes: as for B1
Consider B8, for which, in assay [1], the dissociation constant (Kd) was determined as 5 nM, the koff stood at 0.0033 s⁻¹, the kon is 710000 M⁻¹ s⁻¹ and the “t½ [min] (complex half-life)” value was determined as 3 min.

B9: mAb<TnT>rM-11-7(A102W)-Fab(IgG1)-Qtag-Bi (Fab, V domains shown)
VH: QIQLVQSGPELKKPGETVKISCKASGYTFTDFSMHWVKQAPGKGLKWMGWINTETGEPTYADDFKGRFAFSLETSATTAYLQINNLKNEDTATYFCVRSHWMDYWGQGTSVTVSS
VL: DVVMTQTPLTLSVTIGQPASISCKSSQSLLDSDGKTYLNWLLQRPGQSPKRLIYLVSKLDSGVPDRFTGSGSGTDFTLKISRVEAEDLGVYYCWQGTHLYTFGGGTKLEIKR
notes: Murine Fab (IgG1) with a Qtag, produced in HEK FreeStyle 293-F cells, site-directed conjugated to biotin with Kutzneria albida transglutaminase; also called maturated biotinylated mAb<TnT>rM-11-7(A102W)-Fab
With B9, the “fold increase of Cal-2 signal against parental” value in assay [2] stood at 1.8 fold. Besides, the “fold increase in sensitivity (signal to noise) against parental” value in assay [3] is roughly 2 fold. Also, the “fold increase of Cal-1 signal against parental” value in assay [4] was found to be 1.7 fold.

B10: mAb<TnT>rM-11-7 Fab A102W (Fab, V domains shown)
VH: QIQLVQSGPELKKPGETVKISCKASGYTFTDFSMHWVKQAPGKGLKWMGWINTETGEPTYADDFKGRFAFSLETSATTAYLQINNLKNEDTATYFCVRSHWMDYWGQGTSVTVSS
VL: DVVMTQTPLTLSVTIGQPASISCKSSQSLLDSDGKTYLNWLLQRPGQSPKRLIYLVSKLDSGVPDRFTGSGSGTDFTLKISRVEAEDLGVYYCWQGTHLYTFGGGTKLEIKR
notes: as for B1
For B10, in assay [1], the dissociation constant (Kd) was less than 0.01 nM, the koff was less than 1e-05 s⁻¹, the on-rate (kon) stood at 1.1e+06 M⁻¹ s⁻¹ and the “t½ [min] (complex half-life)” value was greater than 1160 min.

B11: mAb<TnT>rM-11-7 Fab A102E (Fab, V domains shown)
VH: QIQLVQSGPELKKPGETVKISCKASGYTFTDFSMHWVKQAPGKGLKWMGWINTETGEPTYADDFKGRFAFSLETSATTAYLQINNLKNEDTATYFCVRSHEMDYWGQGTSVTVSS
VL: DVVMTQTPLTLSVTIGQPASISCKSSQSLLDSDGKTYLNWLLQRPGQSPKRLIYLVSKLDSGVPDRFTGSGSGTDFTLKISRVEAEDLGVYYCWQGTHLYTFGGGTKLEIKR
notes: as for B1
As for B11, in assay [1], the dissociation constant Kd came to 9 nM, the off-rate (koff) turned out to be 0.0098 s⁻¹, the on-rate (kon) was determined as 1.1e+06 M⁻¹ s⁻¹ and the “t½ [min] (complex half-life)” value is 1 min.
